Patent publication US12466859B2, “Desmoglein 2 (DSG2) binding proteins and uses therefor” (UNIVERSITY OF WASHINGTON THROUGH ITS CENTER FOR …, priority 2013, dated 2025)
Positions count from the first letter of the chain named. “Also recorded” adds a separate entry of the source.

B1: JO-1: dimeric protein that contains the wild-type Ad3 fiber knob and a self-dimerization domain (SEQ ID NO:27) (protein, listed as Homo sapiens)
chain: MKVSALKEKVSALKEKVSALKEKVSALKEKVSALKEGSGGGSGGGSGGGSNSIALKNNTLWTGPKPEANCIIEYGKQNPDSKLTLILVKNGGIVNGYVTLMGASDYVNTLFKNKNVSINVELYFDATGHILPDSSSLKTDLELKYKQTADFSARGFMPSTTAYPFVLPNAGTHNENYIFGQCYYKASDGALFPLEVTVMLNKRLPDSRTSYVMTFLWSLNAGLAPETTQATLITSPFTFSYIREDD
modifications: dimer
B2: JO-4 (protein)
chain: B1 chain with Y177F

Assays:
[1] = tested on: ovc316 xenograft tumors; assay: Enhancement of PLD therapy in ovc316 ovarian cancer xenograft tumors; assay type: in vivo, CB17 mice; details: weekly
Experimental: (§1) FIG. 10A-10C. Combination of affinity-enhanced JO-1 versions with chemotherapy. FIG. 10A) Enhancement of irinotecan (I) therapy. The experimental setting was the same as in FIG. 5B. […] N=5. […] Mammary fat pad tumors were established from primary ovarian cancer ovc316 cells. Treatment was started when tumors reached a volume of 100 mm^3. Mice were injected intravenously with 2 mg/kg JO-1 or with 0.5 mg/kg JO-4, followed by an intravenous injection of PEGylated liposomal doxorubicin (PLD) (1 mg/kg) one hour later. Treatment was repeated weekly. […] A total of 4×10^6 TNBC MDA-MB-231 cells were injected into the mammary fat pad of CB17 SCID-beige mice. JO-4 (2 mg/kg) was intravenously injected 1 hour before the application of cetuximab (C) (10 mg/kg, i.p.) and nab-paclitaxel (nab-P) (5 mg/kg, i.v.). Treatment was given weekly. N=10 P<0.01 at day 25 for nab-P+C vs JO-4+nab-P+C.
(§2) A549, MDA-MB-231, and ovc316 xenograft tumors were established by injection of the corresponding tumor cells into the mammary fat pad (1:1 with Matrigel) of CB17 mice. TC1-DSG2 tumors were established by subcutaneous injection of TC1-DSG2 cells into DSG2 transgenic mice. […] Tumor volumes were measured three times a week. […]

[2] = Serum clearance of JO-1 and JO-4 by ELISA; assay type: in vivo, hDSG2 transgenic mice; details: 2 mg/kg i.v.; mice with TC1-hDSG2 tumors
Experimental: (§3) FIG. 11A-11C. Pharmacokinetics, toxicity, and immunogenicity of JO-4. FIG. 11A) Serum clearance of JO-1 and JO-4. hDSG2 transgenic mice with subcutaneous TC1-hDSG2 tumors (˜600 mm^3) were intravenously injected with JO-1 or JO-4 (2 mg/kg) and serum samples were analyzed for by ELISA. N=3. Note that the y-axis has a log scale. FIG. 11B1) Lymphocyte and FIG. 11B2) platelet counts in hDSG2/TC1-hDSG2 transgenic mice after JO-1 or JO-4 injection. N=3. FIG. 11C) Therapy studies in immunocompetent hDSG2 transgenic mice with TC1-hDSG2 tumors. When tumors reached a volume of ˜80 mm^3, JO-1 or JO-4 (2 mg/kg) or PBS was injected intravenously followed one hour later by PLD/Doxil (i.v. 1.5 mg/kg). Treatment was repeated as indicated by arrows. Tumors were then allowed to re-grow for about two weeks. From day 15 on serum anti-JO-1/J)—4 antibodies were detectable by ELISA. Two more treatment cycles were performed at day 28 and day 35. […] The difference between JO-1/PLD vs JO-4/PLD is significant from day 31 on. N=10.
Two of the affinity enhanced version of JO-1, Y293D and V250F were analyzed in in vivo assay. We called these mutants JO-2 and JO-4, respectively. The first study was performed in a xenograft model derived from A549 cells similar to the study described for FIG. 5B. […] We also analyzed hematological parameters after i.v. JO-1 and JO-4 injection.

[3] = Blood chemistry and blood cell counts after i.v. injection; assay type: in vivo, hDSG2 transgenic mice; details: for Blood chemistry / Lymphocyte and platelet number after injection: after i.v. injection, 2 mg/kg
Experimental: as §3
Two of the affinity enhanced version of JO-1, Y293D and V250F were analyzed in in vivo assay. We called these mutants JO-2 and JO-4, respectively. The first study was performed in a xenograft model derived from A549 cells similar to the study described for FIG. 5B. […] Additional studies were performed in xenograft tumors derived from ovc316 cells (30, 32). Ovc316 cells are Her2/neu positive epithelial tumor cells derived from an ovarian cancer biopsy. These cells can undergo EMT and the reverse process, mesenchymal-to-epithelial-transition (MET), under specific conditions in vitro and in vivo. A subfraction of ovc316 cells that is positive for Nanog, CD133, and E-cadherin is enriched for cancer stem cells, i.e. self-renewing cells with pluripotent potential and tumor forming ability (30). Ovc316 cells therefore closely model the heterogeneity and plasticity seen in tumors in situ. […] Finally, we tested JO-4 in a model for triple-negative breast cancer (TNBC). TNBC is characterized by a lack or minimal expression of estrogen receptor (ER), progesterone receptor (PR) and the absence of Her2/neu overexpression. TNBC accounts for 15% of all breast cancers. Overall survival is poor compared with that in patients who have other phenotypes. A characteristic feature of TNBC is high levels of DSG2 and epithelial junctions. Promising clinical results in the treatment of TNBS have been achieved with nanoparticle, albumin-conjugated paclitaxel (nab-paclitaxel/Abraxane™) alone or in combination with the EGFR-targeting mAb cetuximab/Erbitux™ (38). […] Because of its therapeutic relevance, we further studied JO-4 in an adequate mouse tumor model. […] These mice were subcutaneously implanted with syngeneic TC1-hDSG tumors. When tumors reached a volume of ˜600 mm^3, JO-1 or JO-4 was intravenously injected for safety and efficacy studies. […] After one hour post-injection JO-1 and JO-4 concentration reached a plateau with −100 ng/ml. We also analyzed hematological parameters after i.v. JO-1 and JO-4 injection.

[4] = tested on: TNBC MDA-MB-231 tumors; assay: Enhancement of nab-paclitaxel/cetuximab therapy in orthotopic TNBC MDA-MB-231 tumors; assay type: in vivo, CB17 SCID-beige mice; details: 2 mg/kg i.v. 1 hour before cetuximab 10 mg/kg i.p. and nab-paclitaxel 5 mg/kg i.v., weekly
Experimental: as §1, §2

| Molecule | Enhancement of PLD therapy ([1]; 2 mg/kg i.v. one hour before PLD 1 mg/kg) | Decline of serum concentration within an hour after injection [2] | Blood chemistry [3] | Lymphocyte and platelet number after injection [3] | Enhancement of PLD therapy ([1]; 0.5 mg/kg i.v. one hour before PLD 1 mg/kg) | Enhancement of nab-paclitaxel/cetuximab therapy [4] | Lymphocyte and platelet counts at nadir compared with JO-1 ([3]; 24 hours p.i., p<0.01) | Return of lymphocyte and platelet counts to normal levels ([3]; compared with JO-1 treated animals) |
| --- | --- | --- | --- | --- | --- | --- | --- | --- |
| B1 | significantly increased the treatment efficiency | declined more than one order of magnitude | did not show abnormal changes | decreased early after injection |  |  |  |  |
| B2 |  | declined more than one order of magnitude; also recorded: significantly greater; also recorded: rapidly decrease | did not show abnormal changes | decreased early after injection; also recorded: transient reduction | enhances PLD therapy | significantly increased; also recorded: enhances therapy | significantly lower numbers | faster |
